Assay results taken from the nanobody polyreactivity screen of Harvey et al. (2022).

Experiment: yeast display, Sf9 membrane polyspecificity reagent, FACS + sequencing; frameworks hold sequencing errors
Summary of the method: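 Nanobodies from a synthetic yeast display library (Saccharomyces cerevisiae BJ5465), induced 36–48 hours with galactose, were stained 1 hour at 4 °C with 10% biotinylated, detergent-solubilized Sf9 membrane reagent, enriched on streptavidin microbeads, then FACS-sorted. Anti-HA (expression) and streptavidin (reagent binding) fluorescence set low and high (top ~1%) gates. Polyreactivity labels come from the gate of origin. Genes were colony-PCR amplified, MiSeq 2 × 250 sequenced and filtered by CDR length.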

Row | Sequence | polyreactivity (PSR sort gate)
1 | QVQLVESGGGLVQAGGSLRLSCAASGRTFTRYSMGWYRQAPGKERELVAAISRSGGSTYYADSVKGRFTISRDNAKNTVYLQMNSLKPEDTAVYYCAADVYRDLAYDYWGQGTQVTVSS | high polyreactivity
2 | QVQLVESGGGLVQAGGSLRLSCAASGRTFTRYTMGWYRQAAGKERELVAAISYSGGSTYYADSVKGRFTISRDNAKNTVYLQMNSLKPEDTAVYYCAAASVRWPGYDYWGQGTQVTVSS | high polyreactivity
3 | QVQLVESGGGLVQAGGSLRLSCAASGRTFTSYAMGWYRQAPGKERELVAAISQGGGRTYYADSVKGRFTISRDNAKNTVYLQMNSLKPEDTAVYYCNARSLYPWRWKKEYGHWGQGTQVTVSS | high polyreactivity
4 | QVQLVESGGGLVQAGGSLRLSCAASGRTFTSYAMGWYRQAPGKERELVATISWSGGSTYYADSVKGRFTISRDNAKNTVYLQMNSLKPEDTAVYYCAALKPWTTGYGDRFDYWGQGTQVTVSS | low polyreactivity
5 | QVQLVESGGGLVQAGGSLRLSCAASGRTFTTNAMGWYRQAPGKERELVAAITSTTRTYYADSVKGRFTISRDNAKNTVYLQMNSLKPEDTAVYFCAARYPTPWGYYYWGQGTQVTVSS | high polyreactivity
6 | QVQLVESGGGLVQAGGSLRLSCAASGRTFTTNTMGWYRQAPGKERELVAGIRWSGSRTYYADSVKGRFTISRDNAKITVFLQMNSLKPEDSAVYYCAVGRRSDAPLYVYRFDYWGQGTQVTVSS | low polyreactivity
7 | QVQLVESGGGLVQAGGSLRLSCAASGRTFTTYAMGWYRQAPGKARELVAAISDTGGITYYADSVKGRFTISRDNAKNTVYLQMISLKPEDTAVYYCNAESYGGDYDYWGQGTQVTVSS | low polyreactivity
8 | QVQLVESGGGLVQAGGSLRLSCAASGRTFTVNAIGWYRQAPGKERELVAAISGRSGRTSYADSVKGRFTISRDNAKNTVYLQMNSLKPEDTAVYYCNASGGYSTGSRYDYWGQGTQVTVSS | high polyreactivity
9 | QVQLVESGGGLVQAGGSLRLSCAASGRTFTVYAMGWYRQAPGKERELVAAINYSGGRTYYADSVKGRFTISRDNAKNTVYLQMNSLKPEDTAVYYCAAYVYQSSPRYSRYGGYDYWGQGTQVTVSS | low polyreactivity
10 | QVQLVESGGGLVQAGGSLRLSCAASGRTFTWNVMGWYRQAPGKERELVAAITTDDRTYADSVKGRFTISRDNAKNTVYLQMNSLKPEDTAVYYCATVVAWSSRPVGEDYWGQGTQVTVSS | low polyreactivity
11 | QVQLVESGGGLVQAGGSLRLSCAASGRTFTYNVMGWYRQAPGKERELVAAISSGGGTISADSVKGRFTISRDNAKHTVYLQMNSLKPEDTAVYYCAAKYAWRLLEMYYWGQGTQVTVSS | low polyreactivity
12 | QVQLVESGGGLVQAGGSLRLSCAASGRTFTYYAMGWYIQAPGKERELVAAITSGGRTYYADSVKGRFTISRDNAKNHVYLQMNSLKPEDTAVYYCAARRIRDYYRSYDYWGQGTQVTVSS | high polyreactivity
13 | QVQLVESGGGLVQAGGSLRLSCAASGRTFTYYAMGWYRQAPGKERELVAAIRWTGDSTYYADSVKGRFTISRDNAKNTVYLQMNSLKPEDTAVYYCAKQARWQYDGGIRWYYYWGQGTQVTVSS | high polyreactivity
14 | QVQLVESGGGLVQAGGSLRLSCAASGRTFTYYAMGWYRQAPGKVRELVAAITFRGGRTYYADSVKGRFTFSRDNPKNTVYLQMNSLKPEDTAVYYCAAVPLWSYGGNYWGQGTQVTVSS | high polyreactivity
15 | QVQLVESGGGLVQAGGSLRLSCAASGRTFVANRMGWYRQAPGKERELVAAINDGDDTYYADSVKGRFTISRDNAKNTVYLQMNSLKPEDTAVYYCAADIIYGYEVYTYTSDYWGQGTQVTVSS | low polyreactivity
16 | QVQLVESGGGLVQAGGSLRLSCAASGRTFVEYAMGWYRQAPGKERELVADITISGGRTYYADSVKGRFTISRDNAKNTVYLQMNSLKPEDTAVYYCNAQSYLGVTHRGYIKNGYDYWGQGTQVTVSS | low polyreactivity
17 | QVQLVESGGGLVQAGGSLRLSCAASGRTFVGNALGGYIQAPGKERELVAAISSGGSTYYADSVKGRFTISRDNAKITVYLQMNSLNPEDTAVYYCAGLYRRGAHGDYWGQGTQVTVSS | low polyreactivity
18 | QVQLVESGGGLVQAGGSLRLSCAASGRTFVGNSMGWYRQAPGKERELVADITWSGDITYYADSVKGRFTISRDNAKNTVYLQMNSLKPEDTAVYYCAADYHRRRTDYDYWGQGTQVTVSS | low polyreactivity
19 | QVQLVESGGGLVQAGGSLRLSCAASGRTFVGYAIGWSRPATGKERELVAAISRTGGSTYYADSVKGRFTISRDNAKNTVYLQMNSLKPEDTAVYYCNAVTLSSTYGGHDYWGQGTQVTVSS | high polyreactivity
20 | QVQLVESGGGLVQAGGSLRLSCAASGRTFVGYAMGWDRQAPGKERELVATITSSGRTNYADSVKGRCTISRDNAKNTVYLQMNSLKPEDTAVYYCNKQRTRWYDYWGQGTQVTVSS | high polyreactivity
21 | QVQLVESGGGLVQAGGSLRLSCAASGRTFVGYAMGWYRQAPGKEREFVADITYDSGSTYYADSVKGRFTISRDNAKNTVYLQMNSLKPEETAVYYCAAPDYWAYTRSMDYWGQGTQVTVSS | high polyreactivity
22 | QVQLVESGGGLVQAGGSLRLSCAASGRTFVGYVMGWYRQAPGKERDLVAAITSRGGRTYYADSLKGRFTISRDNAKNTVYLQMNSLNPEDTGVYYCYAAHGSRAFFGGYDYWGQGTEVTVSS | high polyreactivity

Row | Sequence | polyreactivity (PSR sort gate)
23 | QVQLVESGGGLVQAGGSLRLSCAASGRTFVHYTMGWYRQTPGKDRELVAAISGTGTSTYYADSVKGRFTISRDNAKNTVYLQMNSLKPEDTAVYYCARDPYFGFHIGYPRRDYWGQGTQVTVSS | low polyreactivity
24 | QVQLVESGGGLVQAGGSLRLSCAASGRTFVIYAMGWYRQAPGKQRELVAAISKSGGRTYYADSVKGRFTISRDNAKNSVYLQMNSLKPEDTAVYYCNKVLSVSQAGGFDYWGQGTQVTVSS | high polyreactivity
25 | QVQLVESGGGLVQAGGSLRLSCAASGRTFVKNAMGWYRQAPGKERELVAISWSTGGTYYADSVKGRFTISRDNAKNTVYLQMNSLKPEDTAVYYCNADWGSVNGYSGYYYWGQGTQVTVSS | low polyreactivity
26 | QVQLVESGGGLVQAGGSLRLSCAASGRTFVKYAMGWYRQAPGKERELVAAISWSGGSTYYADSVKGRFTISRDNAKNTVYLQMNSLKPEDTAVYYCNTAQRYRVYRYDYWGQGTQVTVSS | high polyreactivity
27 | QVQLVESGGGLVQAGGSLRLSCAASGRTFVNNAMGWYRQAPGKERELVAAISRSGGSTYYADSVKGRFTISRDNAKNTVYLQMNSLKPEDTAVYYCNKASNVRGYEYWGQGTQVTVSS | high polyreactivity
28 | QVQLVESGGGLVQAGGSLRLSCAASGRTFVPYAMGWYRQAPGKEREFLAAISWRGGSTYYADSVKGRFTISRDNAKNTVYLQMNSLKPEDTAVYYCAARYKRGFGVRFGYDYWGQGTQVTVSS | high polyreactivity
29 | QVQLVESGGGLVQAGGSLRLSCAASGRTFVPYVMGWYRQAPGKERELVAAISSSGGNTYYADSVKGRFTISPDNAKNTVYLQMNSLKPEDTAVYYCAARPRGYVYPGYYYWGQGSQVTVSS | high polyreactivity
30 | QVQLVESGGGLVQAGGSLRLSCAASGRTFVRNAKGWYRQAPGKERELVAAITSGGSTYYADSVKGRFTISRDNAKNTVYLQMNSLKPEDTAVYYCAAISTWGTKYDYWGQGTQVTVSS | high polyreactivity
31 | QVQLVESGGGLVQAGGSLRLSCAASGRTFVRNAMGWSRQAPGKERELDAAITSGGSTYYADSVKGRFTISRDNAKNTVYLQMNSLKPEDTAVYYCAAVDRRYGPTYKMGYWGQGTQVTVSS | high polyreactivity
32 | QVQLVESGGGLVQAGGSLRLSCAASGRTFVRNAMGWYRQAPGKERELVAAISRGGRTNYADSVQGRFTISRDNAKNTVYLKMNSLKPEDTAVYYCATGAGYYFDYDYWGQVTQVTVSS | high polyreactivity
33 | QVQLVESGGGLVQAGGSLRLSCAASGRTFVSNAMGWYRQAPGKERELVAAISSSGGSTYYADSVKGRFTISRDNAKNTVYLQMNSLKPEDTAVYYCATYPWYSKYRYDHWGQGTQVTVSS | high polyreactivity
34 | QVQLVESGGGLVQAGGSLRLSCAASGRTFVSNSMGWYRQAPGKERELVAAISSSGGSTYYADSVKGRFTISRDNEKNTVYLQMNILKPEETAVYYCANDPWYSKYRYDHWGQGTQVTVSS | high polyreactivity
35 | QVQLVESGGGLVQAGGSLRLSCAASGRTFVSYTMVWYRQAPGKERELVAAISSGGSTTYADSVKGRFTISRDNAKNTVYLQKNSLKPEDTAVYYCNARYGWSYWSKYDYWGQGTQVTVSS | high polyreactivity
36 | QVQLVESGGGLVQAGGSLRLSCAASGRTFVTNAMGWYRQAPGKERELVAAIRWSSDSTYYADSVKGRFTISRDNAKNTVYLQMNSLKPEDTAVYYCAKQWYVAKISYDYWGQGTQVTVST | high polyreactivity
37 | QVQLVESGGGLVQAGGSLRLSCAASGRTFVTNAMGWYRQAPGKERELVAAISSSGGSTYYADSVKGRFTISRDNAKNTVFLQMNSLKPEDTAVYYCAVGGQTKGQYDYWGQGTQVTVSS | low polyreactivity
38 | QVQLVESGGGLVQAGGSLRLSCAASGRTFVTNAMGWYRQAPGKERELVATIRFSGGGTYYAVSVKGRFTISRDNAKNTVYLQMNSLKPEDTAVYYCNADSIDPFLYDYWGQGTQVTVSS | low polyreactivity
39 | QVQLVESGGGLVQAGGSLRLSCAASGRTFVTYAMGWYRQAPGQERELVAAISASGGSTYYADSVKGRFTISRDNAKNTVYLQMNSLKPEDTAVYYCAKTYFLATPYGYWGQGTQVTVSS | low polyreactivity
40 | QVQLVESGGGLVQAGGSLRLSCAASGRTFVTYGMGWYRQAPGKERELVATIRSGTTTNYADSVKGRFTISRDNAKNTVYLQMNSLKPEDTAVYYCNARGLRASSRRYYYWGQGTQVTVSS | high polyreactivity
41 | QVQLVESGGGLVQAGGSLRLSCAASGRTFVVNAMGWYRQAPGKERELVAAITRRGGITYYADSVKGRFTISRDNAKNTVYLQMNSLKPEDTAVYYCAADRSYYPDTRTTYGYNYWGQGTQVTVSS | low polyreactivity
42 | QVQLVESGGGLVQAGGSLRLSCAASGRTFVVNAMGWYRQAPGKERELVAAIYADSVKGRFTISRDNEKNTVYLQMNSLKPEDTAVYYCAASGGTWVNYRPEYDYWGQGTQVTVSS | low polyreactivity
43 | QVQLVESGGGLVQAGGSLRLSCAASGRTFVVYAMGWYRQAPGKERELVAAISWSGGLTYYADSVKGRFTISRDNAKNTVYLQLNSVKPEDTAVYYCAAEVYLYKYVYYYWGQGTQVTVSS | high polyreactivity
